Reference: the DeepSol protein solubility set

Assay: soluble on expression in E. coli; label from the status in PepcDB or PDB records
In the case of “MVAHQKADFKSKWAMVVTVNNLNDKKRADLREFSEWFIETLRLEGAFIGHYFNYEAAPVTIVETLPGNFDSCTNAYQKIHKEHPQVVLVVHILPQSQSNEYEWMKVLASRYGFVRQGLLYDNCANRFQNVETDQNSVFRNMCQWIYRSGTAIVRNEGNACGILHGKDPKPTFDKVLFNSEDIKDSVFKVLHAEEEPRGADQENMLKISGYPGMLNTFGIAQLLTPYRVNGITITGAQSAVVALENKFQVYQAVQDFNGKKLDRNHKLQVSSLVVSSPAVPLEWPSLKKSKKLVEQVGKPIRLSKVSS”, the “soluble on expression in E. coli” value is reported as “not soluble”.
For “MGSDKIHHHHHHMADNLALRMRPRNINEVIGQQHLVGNGKIIDRMVAANMLSSMILYGPPGIGKTSIASAIAGTTKYAFRTFNATVDSKKRLQEIAEEAKFSGGLVLLLDEIHRLDKTKQDFLLPLLENGNIIMIGATTENPFFSVTPAIRSRVQIFELEPLSNEDIKKAIQLAISDKERGFPFLVTIDDEALDFIVTATNGDLRSAYNSLDLAVMSTSPNEDGSRHISLETMENSLQCSYITMDKNGDGHYDILSALQKSIRGSDVNASLHYAARLVEAGDLPSLARRLTIIAYEDIGLANPEAQIHTVTALEAAQRIGFPEARILIANIVVDLALSPKSNSAYLAMDAALADLRRSGNLPIPRHLRDGHYSGSKTLGNARDYKYPHAYPEKWVKQQYLPDKLVGHNYFEANETGKYERALGSNKERIDKLSD”, the “soluble on expression in E. coli” value was “not soluble”.
For “MNLPPDALHENVYAFALARDQVESYCNQCLTSMAELKKCSACRRLAYCSQECQRADWKLHKVECKAIKTHNEVANDSIRLVMRIAGKLSRNEDGEIEAYYIPGVARNFQNLEHHPSSYDADEESFVKEYFQFAIAPHPDRDLIKLIFQKVSINSFVVGNSTGNPIGVGLCIKLSAANHSCKPLTRVCYRNRTAMLVPVSSELPSTLEGACHSYIDELMPRDMRRDTLKKKYKFLCQCDGCLDEDRNARMEAWTCGICVKGWMRNKENGQCELCGWTMSKDHFELCRTAEEAGIAARSRLANDAIPLETKRNLCEKLLDLFQDTLHDHNVHRIPVLRCLYICSLAAQNITAAAKTGGTLLSIMLVYQNTTDPAILFQKYQLAQLFCAAGAKTQATKLLQEIEEPLEKIYTPDSMICRNVYCMILKARNLS”, the “soluble on expression in E. coli” value was “not soluble”.
With “MHHHHHHSSGVDLGTENLYFQSNAMLLPTDLSENSFKVLEYLGDFKKVGVEEIGVLFVINLTKLSTVSGGIDIDHYIDEMSEKAEEVLPEVAQKIEAAGIKAEVIKPFPAGDPVVEIIKASENYSFIAMGSRGASKFKKILLGSVSEGVLHDSKVPVYIFKHDMVVNSLFDRVLVAYDFSKWADRALEYAKFVVKKTGGELHIIHVSEDGDKTADLRVMEEVIGAEGIEVHVHIESGTPHKAILAKREEINATTIFMGSRGAGSVMTMILGSTSESVIRRSPVPVFVCKRGDDE” the “soluble on expression in E. coli” value was “soluble”.
With “MGSDKIHHHHHHMKVLVTGATGFIGRQVVHRLREAGAELRLASRHPERLGPGQDAMRMPDVDAPTAAFLALARGVTDVVHCAGLNNDEGNATEADFRAANAELSARLAQAAAEQASGRFIQLSSIRAVIGARVSATIDEDTIPDPQCAYGRSKREAEIRVLDAYASHGRSDATVLRLPPVYGTGMQGNLATLMRMADTGLPLPTGALTGTRSLLSAQSTAGAIWHLLSLSGRLRPIHVASDVPPVSIADIVDAFRDGFGRPTRLMAVPAGPLRIAAILLGKRTSWDSLTASQICDPSLLVSEGWLPETGTLERLAEIARLGDAQSPPLR” the “soluble on expression in E. coli” value was “not soluble”.
With “MSELVEMEVHGITLDPTTQMPIVVLKGKEDENLILPIWIGAFEANGIAMKLQGVEPPRPMTYELLKNIITEMGGNVEKVVINDLKDSTYYAEIYINQGNNTLVIDSRPSDAINLALRFGAPIYVAEHVLEQSKLPEPEEDEEKKKLREWLENIKPEDFEIGGEKSLEHHHHHH” the “soluble on expression in E. coli” value was “soluble”.
With “MAHHHHHHMNSSTVSEDIALAGIKKEVLRSLPFWKSFVELREAYHRRPRVFSCDVSIKSRKACSHFVGFDVLWVQSEVVLVSWRRPSKRNRANDFPPEFVEVHLTFGSMHFVHQNVHLVGDHCSYSLQSVVLLQRPEQLQCVAGNMVHFAFLVYGMLHISQRDGFLTDPRAILPPPNSAVMLLGMGGNSMERGIRYILGEDAHIYIAEIEPAVVSTCRFAGLLKENANTHVCLDSAERTIQKCPEKCTFIFMDLFEPLSGNMVNTMPLIRQAFDILAPNGILLINEHSIPTVEHLLPLLHLFGDHNVQFVNVRGWNESIIAATKPGGNADGLGRKCSKRLATDVLNDFDHTFPGWMPDKNYILRSQILYAKPLTLKLRARQWTS” the “soluble on expression in E. coli” value was “not soluble”.
In the case of “MGSDKIHHHHHHMIPIKVSMRNLSSLTIAGGSTISSIDIPLNPLGVPPSTIKGTMRTAVHNLLPNGYTSCGEVEPESIREAHKNGVCDVCKLFGYPDSLTGCFTIDVSKTDYRTSYITRVSIDDKTQRAKEGSLFTQQIILPNSDISFTVYYNCNDERLFKLLLYSILDLRYWRLGRNTMIDVKVNNVEEICKSVKCDEEINGILNQLSRYLWEAENK”, the “soluble on expression in E. coli” value is reported as “not soluble”.
In the case of “MAWGGLCNPPLCFGFSGCDMNVREYYEHALAERGYQPDEAQLQAVERLQRYYDEWVRFKALRSNALKKLLNRPDVPRGVYLWGGVGRGKSFLMDAFYATVPVVRKTRLHFHEFMRGVHRELEEVKGTQDPLDEVARRLARRYRLICFDEFHVSDVADAMILYRLLLKLFEHGTSFVMTSNYEPSTLYPDGLHRDRILPAIALIQGRMDVLNVDAGIDYRRRSLEQVQCYHTPLDAQARQALEHAFAQLSDTAPQDPVLHIEHREIRAQALAGSVVWFDFATLCGGPRSQNDYLELANRFHAVILSDVPRMGPRQASEARRFTWLIDVFYDHKVKLIMSAEVEPEQLYTEGALANEFHRTVSRILEMQSREYLEAERRLAVTLAAALEHHHHHH”, the “soluble on expression in E. coli” value is reported as “not soluble”.
In the case of “MGSDKIHHHHHHMNNKYKNSYIVKEKELVSLSVYNVGFQSCDSLYQWGPGIRDHYLIHYIISGKGRYTVNGSVHTLTPGDAFLVYPNTEVIYQADAQDPWEYTWVGFTGSDAATILRATDFTKAHPYIHSVSNGNEIKRQLMHIYDARGTEFENALEMTGRLYTTLALFVSAATSKPPQNSANSYVQKGIEYISANYSYPITVEDIASYIGLSRSHLFRSFQSILGVSPKEYLTDFRIKQACYLLKHSSLSITAIAGSIGFDNSLYFSKTFHKIKGLSPKEYRSKYKKAQE”, the “soluble on expression in E. coli” value is reported as “not soluble”.
In the case of “MKAKREALISLFHAIKEEKVDSDIIDLLLLINSIKGIYTTSSCSGRIGILEEPSLGAKPLSRWLIKVHRPMSFEEARDALKRAREGLIFLKSQPPIFHVVAETIENAKLVHEIGLASGFKYTTFKAISSRFLVEINGTEYLTVPLGKDGRIIASDEYLKFAISIGNKMLERGKSKLPRLRDNFEKIKKKLGEDPLFIQLKREILEI”, the “soluble on expression in E. coli” value is reported as “soluble”.
With “MKPKLAQWKELLAARHKKENDEEKEEEKPDGRPVTDVPYADVWREYGAKPYWFAGDYCLIRETVYPLDYQHGRYRLGALYEVHERWQEAPFSHPLSCRGFAVRDLFFFDTETMGLSSGAGNIMFLLGHARILGDFVTIRQHLLPYPGAEVALYQSFLSDVDYTTLVTYNGKAFDWPRLKTRHALVRNMVPKLPAFGHFDLYHAARRLWKDKLDSLRLSEVERHILHVERGDDVPGFLAPMMYKEFLQTPHPDRLMPVLRHNERDVLSLIALYIHLSVQLLEADRLADPKEQLAAARWFEAVGETAAARGVYEEASGKGAKEAQAAKWQLSLLYRKEKRYEEAALLWRDLLIHGNGYWKAKAGLELAKVYEHYFRDAAEAHRYAVMAYEAWRSLARMSRQHSEKEEAEWRRRLARLERKKNG” the “soluble on expression in E. coli” value was “not soluble”.
With “MGSDKIHHHHHHMWIVLDTNIYFNQWLLEGANFRVFRNFCNNTGATLLLPEVVKQEVQNKYDGELAQARIELDKLAAKFSKLGVECPSNLVVSDDYDFDQLVREQYRNVILVPYSGVAHEQLVEKALAPKLPFREKEKGYRDALMWLSILDYVKESGFKESIHFVNANSKDFYSNKSGGLTLHEDLKDDLRARNMETNIIPYTSLNEFVEGHVLQELHGVDWMDFYSEFNGELDSDVCVEAIAWLDECSLSVLREKLVEANYPGLIMDGVFAASFETWDGVEDSDILAMRKIDEDRYFIDYAFDIRGLEVKLLSSPTSPASGYFGAYIDVEIDNDLATTSFFTRADFKASVVFNITAEVVEDVDVTSFKFRPR” the “soluble on expression in E. coli” value was “not soluble”.
With “MGSDKIHHHHHHMHSDEEIFKETTPKALLQLLKKDYYFHDYCYQEIIPRGKEIKMNNSKGFQIYLVESGYFSYCLQNEYGDSGIISFVGGEIAINLIPIIKEEPEESVLRSLTEVHCWVLDPDFVERVLDESGQKAKYLLSNLLYTRKVYFKASKRNFMKKELRIRACLKELGLYMGRVTKEKEFILPDEINNSILAQYANTTREYTNIIVLKLRKEGILDDSHKPWVIKKIDIL” the “soluble on expression in E. coli” value was “not soluble”.
For “MGSDKIHHHHHHMTRILLRNKLDECLAAWQKAGFSVLAPVKRHEMSCFGEVQKSGDMALDLVLTERTIKDQFFPQTEPLIKYRIGKQQIDSETMTPPEKKRVFFGVRPCDASGLAIDDPLFGWDYKDDYWFRRREKSVIVTIACAQADDFCMCTSVKLSPDSTKGADVMLRPLSDGSGWQVEAVSDRGTALVDTVSSLLQESSAEAAPVPQVAEKFDVEKVMEWLADKENFESQFWKDIALRCVGCGSCTFLCPTCHCFDIQDEGDTYQGIRRKNWDSCSFPLFTMHTSGHNPRNTQSTRWRQRIMHKFNYYRGKFGVNSCSGCGRCTRQCPVDMGITETLQAITNLPR”, the “soluble on expression in E. coli” value was “not soluble”.
In the case of “MAHHHHHHMAFAGSNDVLKVQKMLQVLVEKRSDKKVNMDGSAKPTDQPHHPAPCGNAVDGKAPQGADAKGPLLDGKRANPTLGSSKSAKTGPAD”, the “soluble on expression in E. coli” value is reported as “not soluble”.
In the case of “MKEKIITYLEEKGKSSVDDLASSLDMAGAQKFPSLIKEISKLESKGKLRFEQDGTISLRKKKEKKDQVTVTGIFRANKAGFGFVSIDEAEEDLFIGRNDVGHAVDGDTVEVAIKKVANRLKGTAAEARVVKIVEHSLKAVVGRFVLDDEKPPYIGYIKSKNQKITQKIYIKKEPIVLDGTEIIKVAIEKYPTRRYDYFVASVEDVIGHQDDVGIDVLEVLESMDIVSEFPDAVLKEAQSVPDAPSEKDLIGRVDLRKEITFTIDGADAKDLDDAVHVKLLDNGNFELGVHIADVSYYVKEGSALDGEALARGTSVYVTDRVVPMLPERLSNGICSLNPNLDRLTQSAIMEIDKHGRVLHYQITQTVINTSFRMTYSDVNAIIAGDKELTEQYDKIVPSIHYMVTLHKILEKMRERRGALNFDTSEAKILVNDKGFPMDIVLRQRGLAERMIESFMLAANECVAEHFAKKNLPFIYRIHEEPKAEKLQKFMDYASIFGVSIQGTASKISQTALQDFMKKIEGQPGSDVLSMMLLRSMQQARYSEYNHGHYGLAAQYYTHFTSPIRRYPDLLVHRLVREYDKANSEKVEHFAQIIPEIASQTSSLERRAIDAERVVEAMKKAEYMEEYVGQEFTGVVSSVVKFGLFVELPNTIEGLIHMTTLPEFYQFNERTLSLQGEKSGKVFRVGQSIKVKVLKADKETGDIDFAYLPSDFDIIEKLSRSKKEKPRPSRRSGDSKTKANKRSKRSALSQKKKKKPFYKEAVKKGGKHGKGSRKRRRSK”, the “soluble on expression in E. coli” value is reported as “soluble”.
